Measurements taken from patent US20260166140A1, “Combinations Involving Epidermal Growth Factor Receptor Tyrosine Kinase Inhibitors For the Treatment of Cancer” (AstraZeneca AB, priority 2022, published 2026).

Experiments:
[1] = tested on: MEDI-PANC-08^LUC PDX model; assay: Orthotopic luciferase expressing pancreatic PDX model efficacy; type: in vivo, mice; conditions: orthotopic MEDI-PANC-08^LUC; RAA2/B09 ADC 2 and 3 mg/kg Q1W×4; Gemcitabine 75 mg/kg; isotype control 3 mg/kg Q1W×4
Protocol: The luciferase expressing PDX model (MEDI-PANC-08^LUC) was grown subcutaneously in NSG seed mice and at a volume of 800-1200 mm^3 the tumors were harvested and cut into fragments of approximately 2 mm^3. The tumor fragments were subsequently sutured to the pancreas of NSG mice (Day Zero). Luciferase signal was determined weekly using the IVIS Spectrum In vivo Imaging system. Briefly, 10 minutes prior to imaging, 200 ul of luciferin dissolved in DPBS (15 mg/ml) was injected intra-peritoneally (i.p.). The mice were anesthetized under 3% isoflurane, laid on their right side and luminescence measured. Fourteen days after tumor implant, when luminescent signal was clearly detectable, the mice were randomized into their respective groups based on the luminescence. […] Luminescence was measured weekly. Study endpoints included body weight loss, deterioration of body condition and lethargy. Data were analyzed using the Living Image software (Perkin Elmer) and plotted as Average Radiance [p/s/cm2/sr] against time.

[2] = tested on: Cynomolgus monkey EGFR; assay: SPR (BIAcore T200) antibody capture kinetics; type: binding
Protocol: (§1) Mouse anti-human IgG was immobilized on a CM4 sensor chip with a final surface density of ˜2000 resonance units (RUs). A reference flow cell surface was also prepared on this sensor chip using identical immobilization protocol. Test and control article antibodies were prepared at 5-20 nM in instrument buffer (HBS-EP buffer; 0.01M HEPES, pH 7.4, 0.15M NaCl, 3 mM EDTA, and 0.005% P-20), along with 3-fold serial dilutions of purified EGFR (0.27-200 nM human, 0.4-900 nM cyno, and 4-1000 nM murine) or cMET proteins (0.27 to 66 nM human and 0.27-22 nM cyno) in instrument buffer. A sequential approach was utilized for kinetic measurements. Antibodies were first injected over the capture surface, at a flow rate of 10 μL/minute. Once the binding of the captured antibody stabilized, a single concentration of the analyte was injected over both capture and reference surfaces, at a flow rate of 75 μL/minute. The resulting binding response curves yielded the association phase data. Following the injection of analyte, the flow was then switched back to instrument buffer for 15 minutes to permit the collection of dissociation phase data, followed by a 1-minute pulse of 10 mM glycine, pH 1.5, to regenerate the antibody-captured surface on the chip. Binding responses against test and control article antibodies were recorded from duplicate injections of each concentration of analyte. In addition, several buffer injections were interspersed throughout the injection series. Select buffer injections were used along with the reference cell responses to correct the raw data sets for injection artifacts and/or nonspecific binding interactions, commonly referred to as “double referencing”. Corrected binding data were globally fit to a 1:1 binding model (Biacore T200 Evaluation software 2.0, GE Healthcare, Pittsburgh, PA).

[3] = biological target: Cynomolgus monkey cMET; assay: SPR (BIAcore T200) antibody capture kinetics; type: binding
Sequence of Cynomolgus monkey cMET (as listed by the source): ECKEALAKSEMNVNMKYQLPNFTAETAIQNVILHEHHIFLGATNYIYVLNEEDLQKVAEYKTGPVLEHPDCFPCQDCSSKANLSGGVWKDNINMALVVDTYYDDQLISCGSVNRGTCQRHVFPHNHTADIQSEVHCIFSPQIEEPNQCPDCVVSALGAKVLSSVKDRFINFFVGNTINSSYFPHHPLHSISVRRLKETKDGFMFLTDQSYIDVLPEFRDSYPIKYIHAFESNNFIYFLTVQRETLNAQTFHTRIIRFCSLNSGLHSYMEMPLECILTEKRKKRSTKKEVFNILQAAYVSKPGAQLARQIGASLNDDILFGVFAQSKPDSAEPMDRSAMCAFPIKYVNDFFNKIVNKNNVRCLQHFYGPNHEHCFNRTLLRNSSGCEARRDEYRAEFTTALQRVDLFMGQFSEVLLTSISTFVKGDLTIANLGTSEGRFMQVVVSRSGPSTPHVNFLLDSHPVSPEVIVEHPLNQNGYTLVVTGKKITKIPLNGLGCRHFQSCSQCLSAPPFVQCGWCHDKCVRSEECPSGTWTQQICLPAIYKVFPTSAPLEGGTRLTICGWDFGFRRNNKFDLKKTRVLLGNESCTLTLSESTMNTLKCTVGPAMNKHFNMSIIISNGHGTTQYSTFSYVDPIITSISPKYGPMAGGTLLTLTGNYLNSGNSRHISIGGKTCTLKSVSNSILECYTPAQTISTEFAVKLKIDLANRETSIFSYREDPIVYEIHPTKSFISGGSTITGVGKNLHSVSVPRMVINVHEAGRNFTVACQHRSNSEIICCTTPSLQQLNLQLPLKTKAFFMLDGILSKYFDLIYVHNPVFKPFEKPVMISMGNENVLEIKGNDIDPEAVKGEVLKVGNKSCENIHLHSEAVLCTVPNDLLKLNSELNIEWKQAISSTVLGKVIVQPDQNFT
Protocol: as §1

[4] = biological target: T1, Human EGFR (Homo sapiens, UniProt P00533); assay: SPR (BIAcore T200) antibody capture kinetics; type: binding
Protocol: as §1

[5] = biological target: T2, Human cMET (Homo sapiens, UniProt P08581); assay: SPR (BIAcore T200) antibody capture kinetics; type: binding
T2 sequence (P08581 25-932): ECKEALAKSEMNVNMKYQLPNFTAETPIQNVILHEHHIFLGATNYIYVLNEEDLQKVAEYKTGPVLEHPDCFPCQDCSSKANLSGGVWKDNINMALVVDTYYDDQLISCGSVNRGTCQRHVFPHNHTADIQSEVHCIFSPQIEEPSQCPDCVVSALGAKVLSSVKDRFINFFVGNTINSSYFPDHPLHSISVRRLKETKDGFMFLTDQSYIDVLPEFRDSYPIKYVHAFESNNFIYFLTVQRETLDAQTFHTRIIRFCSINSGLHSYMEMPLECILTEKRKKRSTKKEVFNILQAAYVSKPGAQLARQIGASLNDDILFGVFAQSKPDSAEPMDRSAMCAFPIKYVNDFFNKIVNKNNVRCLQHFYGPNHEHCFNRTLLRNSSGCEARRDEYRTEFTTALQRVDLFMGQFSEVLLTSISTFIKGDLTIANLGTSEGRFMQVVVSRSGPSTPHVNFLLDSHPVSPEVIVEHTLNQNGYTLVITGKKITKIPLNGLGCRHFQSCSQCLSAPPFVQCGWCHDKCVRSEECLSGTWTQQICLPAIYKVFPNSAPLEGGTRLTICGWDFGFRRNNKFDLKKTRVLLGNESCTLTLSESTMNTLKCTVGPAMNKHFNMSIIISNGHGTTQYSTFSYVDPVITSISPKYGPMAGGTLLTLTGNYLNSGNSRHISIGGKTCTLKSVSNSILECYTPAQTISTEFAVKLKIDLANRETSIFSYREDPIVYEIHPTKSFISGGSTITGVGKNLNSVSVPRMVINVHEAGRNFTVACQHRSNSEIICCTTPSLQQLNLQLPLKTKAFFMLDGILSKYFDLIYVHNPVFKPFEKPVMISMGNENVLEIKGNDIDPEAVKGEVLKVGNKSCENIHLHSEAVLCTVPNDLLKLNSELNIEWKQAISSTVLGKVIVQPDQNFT
Protocol: as §1

[6] = biological target: T3, Mouse EGFR (Mus musculus, UniProt Q01279); assay: SPR (BIAcore T200) antibody capture kinetics; type: binding
T3 construct: purchased SinoBiological 51091-M08H
Protocol: as §1

[7] = biological target: T4, Mouse cMET (Mus musculus, UniProt P16056); assay: SPR (BIAcore T200) antibody capture kinetics; type: binding
T4 construct: purchased SinoBiological 50622-M08H
T4 sequence (P16056 25-929 limits assumed): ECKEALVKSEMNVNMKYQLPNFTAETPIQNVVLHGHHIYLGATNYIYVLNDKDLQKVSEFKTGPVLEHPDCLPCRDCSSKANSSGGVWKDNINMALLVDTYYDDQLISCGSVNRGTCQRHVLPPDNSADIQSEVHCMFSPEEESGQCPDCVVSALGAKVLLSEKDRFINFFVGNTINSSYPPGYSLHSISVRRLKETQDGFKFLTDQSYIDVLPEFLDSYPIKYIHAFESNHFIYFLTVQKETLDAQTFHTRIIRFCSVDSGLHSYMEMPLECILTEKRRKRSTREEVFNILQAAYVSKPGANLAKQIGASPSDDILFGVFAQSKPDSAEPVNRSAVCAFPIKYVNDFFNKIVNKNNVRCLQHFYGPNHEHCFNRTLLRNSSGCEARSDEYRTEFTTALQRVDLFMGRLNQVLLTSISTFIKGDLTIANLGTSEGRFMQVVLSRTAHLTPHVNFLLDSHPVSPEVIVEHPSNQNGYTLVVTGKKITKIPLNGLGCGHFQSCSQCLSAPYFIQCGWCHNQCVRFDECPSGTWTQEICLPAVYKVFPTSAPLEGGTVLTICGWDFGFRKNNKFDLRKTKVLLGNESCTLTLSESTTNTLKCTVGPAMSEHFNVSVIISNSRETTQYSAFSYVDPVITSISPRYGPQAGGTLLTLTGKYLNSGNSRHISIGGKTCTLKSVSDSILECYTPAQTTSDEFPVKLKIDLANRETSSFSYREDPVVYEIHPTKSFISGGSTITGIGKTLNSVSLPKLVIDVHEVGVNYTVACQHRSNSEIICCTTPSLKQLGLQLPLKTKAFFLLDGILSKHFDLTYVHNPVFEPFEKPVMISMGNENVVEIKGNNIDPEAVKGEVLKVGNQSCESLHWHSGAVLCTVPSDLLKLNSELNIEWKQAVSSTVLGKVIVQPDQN
Protocol: as §1

[8] = tested on: Cynomolgus monkey EGFR; assay: ELISA species cross reactivity; type: binding
Protocol: (§2) Specificity for EGFR and cMET species paralogs and closely related family members was determined by ELISA. Briefly, antigen solutions were prepared in PBS at 1 μg/mL and 50 microliters was coated onto half area ELISA assay plates. Plates were washed and blocked with 1% BSA in PBS containing 0.005% Tween-20 (PBS-T) for one hour at room temperature. The wells were washed 4 times in PBS-T. As set out in FIG. 3, the primary antibodies used where: R374 (a non-binding IgG1 isotype control antibody), B09 (anti-cMET antibody), QD6 (anti-EGFR antibody), RAA22 (anti-EGFR antibody), QD6/B09 (bispecific EGFR/c-MET DuetMAb), RAA22/B09 (bispecific EGFR/c-MET DuetMAb), PaniX (anti-EGFR antibody), MetMab (anti-cMET antibody) and Mab11311 (anti-HER4 antibody). Wells were incubated with 50 microliters of the indicated primary antibodies diluted in PBS-T in a 1:3 dilution series, starting at 10 μg/mL and ending at 0.002 μg/mL, except for the HER4 binding mAb control, MAB1131, for which the series started at 1 μg/mL. The wells were washed 4 times in PBS-T, then 50 μl of goat anti-human Fab HRP-labeled secondary antibody, diluted 1:5000 in PBS-T, was added to each well and incubated for one hour at room temperature. […] 50 microliters of TMB stop solution was added to all wells and the absorbance was read at 450 nm on a SpectraMax M5 microplate reader. Data were analyzed in the SoftMax Pro 5 software and plotted using GraphPad Prism 7 graphing software.
(§3) To determine the species cross reactivity, ELISA assays were carried out as described above. […] There was no detectable binding of any of the antibodies to mouse cMET.

[9] = biological target: T1, Human EGFR; assay: ELISA species cross reactivity; type: binding; conditions: antibody 10 to 0.002 μg/mL
Protocol: as §2, §3

[10] = biological target: T3, Mouse EGFR; assay: ELISA species cross reactivity; type: binding
Protocol: as §2, §3

[11] = biological target: HER2 (Homo sapiens, UniProt P04626); assay: ELISA family specificity; type: binding
Protocol: as §2

[12] = biological target: HER3 (Homo sapiens, UniProt P21860); assay: ELISA family specificity; type: binding
Protocol: as §2

[13] = biological target: HER4 (Homo sapiens, UniProt Q15303); assay: ELISA family specificity; type: binding
Sequence of HER4 (Q15303 26-1308, species assumed): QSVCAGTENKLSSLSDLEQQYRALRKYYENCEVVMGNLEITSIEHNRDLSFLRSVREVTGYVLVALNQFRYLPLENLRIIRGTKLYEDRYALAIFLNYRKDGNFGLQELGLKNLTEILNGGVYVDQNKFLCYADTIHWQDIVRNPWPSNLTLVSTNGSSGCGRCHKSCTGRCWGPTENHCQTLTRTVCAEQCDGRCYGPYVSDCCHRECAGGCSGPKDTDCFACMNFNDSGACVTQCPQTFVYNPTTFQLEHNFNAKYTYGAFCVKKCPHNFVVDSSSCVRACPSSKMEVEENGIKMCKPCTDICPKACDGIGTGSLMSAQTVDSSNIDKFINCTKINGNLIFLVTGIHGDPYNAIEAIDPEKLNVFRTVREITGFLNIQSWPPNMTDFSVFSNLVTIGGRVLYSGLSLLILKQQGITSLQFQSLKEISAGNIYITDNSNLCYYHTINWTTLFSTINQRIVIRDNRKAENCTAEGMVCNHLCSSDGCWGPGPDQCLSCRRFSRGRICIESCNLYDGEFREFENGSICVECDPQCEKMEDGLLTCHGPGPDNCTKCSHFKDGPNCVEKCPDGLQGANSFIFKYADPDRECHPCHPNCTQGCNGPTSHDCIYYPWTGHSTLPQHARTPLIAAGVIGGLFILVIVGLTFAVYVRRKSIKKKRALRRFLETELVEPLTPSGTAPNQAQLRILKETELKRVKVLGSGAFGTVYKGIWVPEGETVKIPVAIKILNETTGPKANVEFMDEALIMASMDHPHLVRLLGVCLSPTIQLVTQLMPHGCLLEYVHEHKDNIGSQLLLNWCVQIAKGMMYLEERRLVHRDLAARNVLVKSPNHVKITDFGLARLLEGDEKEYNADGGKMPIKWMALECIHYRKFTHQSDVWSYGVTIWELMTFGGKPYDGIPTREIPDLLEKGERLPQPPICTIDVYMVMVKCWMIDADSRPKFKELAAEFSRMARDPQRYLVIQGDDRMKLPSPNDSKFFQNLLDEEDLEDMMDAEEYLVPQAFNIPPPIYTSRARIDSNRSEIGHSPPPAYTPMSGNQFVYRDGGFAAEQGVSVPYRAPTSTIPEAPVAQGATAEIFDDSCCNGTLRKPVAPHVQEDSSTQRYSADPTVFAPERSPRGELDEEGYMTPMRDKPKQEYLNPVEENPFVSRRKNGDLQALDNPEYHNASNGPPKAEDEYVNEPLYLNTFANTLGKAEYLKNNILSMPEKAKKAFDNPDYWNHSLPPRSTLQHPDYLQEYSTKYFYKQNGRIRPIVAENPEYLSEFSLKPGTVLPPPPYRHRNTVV
Protocol: as §2

[14] = tested on: Cynomolgus monkey cMET; assay: ELISA species cross reactivity; type: binding
Protocol: as §2, §3

[15] = biological target: T2, Human cMET; assay: ELISA species cross reactivity; type: binding
Protocol: as §2, §3

[16] = biological target: Ron (CD136) (Homo sapiens, UniProt Q04912); assay: ELISA family specificity; type: binding
Protocol: as §2

[17] = tested on: Semaphorin 3a; assay: ELISA family specificity; type: binding
Protocol: as §2

[18] = biological target: human cMET receptor with the HGF ligand (Homo sapiens, UniProt P08581); assay: HGF:cMET HTRF ligand receptor inhibitory binding assay; conditions: purified IgG2 antibodies
Sequence of human cMET receptor with the HGF ligand (P08581 25-932 limits assumed): as the sequence (P08581 25-932) above
Source text: cMET-specific scFv antibodies were isolated from a large naïve human scFv phage display library in a series of repeated panning selection cycles on recombinant mammalian expressed biotinylated monomeric human cMET (MedImmune) essentially as described (Vaughan, 1996). ScFvs from the round 2 of the selection output were expressed in the bacterial periplasm and screened for their ability to inhibit the binding of the human cMET receptor with the HGF ligand in a HGF:cMET HTRF® (Homogeneous Time-Resolved Fluorescence) ligand receptor inhibitory binding assay. […] Unique genes were then converted to human immunoglobulin G2 (IgG2) antibodies and produced in mammalian cells essentially as described (Persic; 1997). The purified antibodies were then ranked based on their inhibitory effect in the HGF:cMET HTRF® binding assay.
To minimize potential immunogenicity, non-Vernier framework residues (Foote and Winter 1992) in the variable framework regions of 0021U3-B09 were targeted specifically and altered to match the closest human germline sequence. In the VH region, seven amino acid residues were mutated to match the reference human germline sequence IGHV1-8*01. In the VL region, three residues were mutated to match the reference human germline sequence IGKV1-5*03. All residues in VH and VL regions were successfully changed to the germline residues without loss of activity. […]

## Nc1ccn([C@@H]2O[C@H](CO)[C@@H](O)C2(F)F)c(=O)n1 [Gemcitabine]
[1]
  luminescent signal: initial reduction in the luminescent signal reaching a nadir around day 21, after which the signal increased over time

B1: RAA22 IgG: low affinity anti-EGFR IgG1 antibody clone, VH SEQ ID NO: 16, VL SEQ ID NO: 20 (antibody, V domains shown)
VH: QVQLVQSGAEVKKPGSSVKVSCKASGGTFSDNDFSWVRQAPGQGLEWMGAIVAVFRTETYAQKFQDRVKITADISTRTTYMELSSLRSEDTAVYYCARRLMSAISGPGAPLLMWGQGTLVTVSS
VL: QSALTQPRSVSGSPGQSVTISCTGTSSDVGGYNYVSWYQQHPGKAPKLMIYDVSKRPSGVPDRFSGSKSGNTASLTISGLQAEDEADYYCSSYTSSDTLEIFGGGTKLTVL
[2]; 25° C.
  Koff: 0.00601 s⁻¹
  Kon: 35400 M⁻¹ s⁻¹
[3]; koff/kon
  KD: No binding detected at 200 nM
[4]; 25° C.
  Koff: 0.00206 s⁻¹
[4]; 25° C., 1:1 binding model
  Kon: 44100 M⁻¹ s⁻¹
[5]; koff/kon
  KD: No binding detected at 200 nM
[6]; 25° C.
  Koff: 0.019 s⁻¹
  Kon: 40300 M⁻¹ s⁻¹
[7]
  KD: No binding detected at 200 nM
[8]
  ELISA binding: bound more weakly
[9]
  ELISA binding: bound more weakly
[10]
  ELISA binding: weak, but detectable
[11]
  ELISA binding: no binding
[12]
  ELISA binding: no binding
[13]
  ELISA binding: no binding

B2: B09-57 IgG: affinity optimized, germlined anti-cMET antibody derived from 0021U3-B09, VH SEQ ID NO: 38, VL SEQ ID NO: 40 (antibody, V domains shown)
VH: QVQLVQSGAEVKKPGASVKVSCKASGYTFTDYYIHWVRQATGQGLEWMGWMNPNSGNTGYAQKFQGRVTMTRDTSISTAYMELSSLRSEDTAVYYCARGQGYTHSWGQGTMVTVSS
VL: DIQMTQSPSTLSASVGDRVTITCRASEGIYHWLAWYQQKPGKAPKLLIYKASSLASGVPSRFSGSGSGTEFTLTISSLQPDDFATYYCQQYSNYPPTFGGGTKLEIK
[2]; koff/kon
  KD: No binding detected at 200 nM
[3]; 25° C.
  Koff: 0.00194 s⁻¹
  Kon: 1.04e+06 M⁻¹ s⁻¹
[4]; KD calculated as koff/kon
  KD: No binding detected at 200 nM
[5]; 25° C.
  Koff: 0.000882 s⁻¹
  Kon: 563000 M⁻¹ s⁻¹
[6]; koff/kon
  KD: No binding detected at 200 nM
[7]
  KD: No binding detected at 200 nM
[14]
  ELISA binding: comparable binding
[15]
  ELISA binding: comparable binding
[16]
  ELISA binding: no binding
[17]
  ELISA binding: no binding
[18]
  rank by inhibitory effect in the HGF:cMET HTRF binding assay: most potent antibody
